± gives the standard deviation of the averaged measurements.
These sequences were tested on ATP (assay: switch fluorescence ratio, 500 uM ATP over buffer (Cy3 cluster intensity, sum of 5 cycles each) (fold (ratio)); higher = stronger signal-on switching upon ATP binding; sequences stand for … in TCGTCGGCAGCGTCAGATGTGTATAAGAGACAGTTTTTTTTTTTTTTTTTTTTTTTTT…TC). Conditions: aptamer strand: ATP DNA aptamer (quencher-CACCTGGGGGAGTATTGCGGAGGAAGG + anchor), 100 nM annealed; ATP concentration: 500 uM.
Summary of the method: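 Switching-strand clusters labelled with Cy3 on a modified Illumina MiSeq flow-cell were annealed to 100 nM quencher-labelled ATP aptamer, imaged in selection buffer, and re-imaged after 15 min with 500 uM ATP at 22 °C. This was done over five cycles with NaOH stripping and re-annealing in between. The fluorescence ratio is summed target-cycle over summed buffer-cycle Cy3 intensity per cluster, averaged per switch-domain sequence, excluding clusters outside 100-1000 RFU.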
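Also: ATP exposure 15 min at 22 °C before imaging.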

Going from ATCTTTAAGT to CAAAAGGGAG, the switch fluorescence ratio rises from 0.993 ± 0.015 to 1.036 ± 0.01.

AACTAGTGGC and GATGAGGTGC are within error of each other in switch fluorescence ratio: 0.998 ± 0.049 for the first, 1.07 ± 0.024 for the second.

TCATTTCAGC and GTTTTTGGTT are within error of each other in switch fluorescence ratio: 1.03 ± 0.011 for the first, 1 ± 0.028 for the second.

Going from TTTTCTTTGC to ACGTTGCCAG, the switch fluorescence ratio falls from 1.03 ± 0.042 to 0.963 ± 0.019.

GTTTTTAAGG and CAATTTAATG are within error of each other in switch fluorescence ratio: 1.02 ± 0.032 for the first, 0.999 ± 0.019 for the second.

AAAAATCGGT and GCTTTAATTC are within error of each other in switch fluorescence ratio: 0.996 ± 0.044 for the first, 1.029 ± 0.0049 for the second.

TGATTCAAAG and ATTAGTAG are within error of each other in switch fluorescence ratio: 1.01 ± 0.035 for the first, 1.022 ± 0.0095 for the second.

GGGATAATTA and TCAGCATTTT are the same in switch fluorescence ratio: 1.01 ± 0.029 for the first, 1.01 ± 0.046 for the second.

GAGCCTTTGT and AAGTCGACGT are within error of each other in switch fluorescence ratio: 1.002 ± 0.006 for the first, 1.03 ± 0.041 for the second.

GGCCCGGTTT and CGGTGGGGTA are within error of each other in switch fluorescence ratio: 0.99 ± 0.029 for the first, 1.01 ± 0.033 for the second.

GATGATCGTT and ATATGTGGAG are within error of each other in switch fluorescence ratio: 0.988 ± 0.0094 for the first, 0.987 ± 0.011 for the second.

AGGGGTAAAA and GTATTTCCGG are within error of each other in switch fluorescence ratio: 1 ± 0.014 for the first, 0.9965 ± 0.0056 for the second.

GTTTCGTGGG and GGGGGGAGCC are within error of each other in switch fluorescence ratio: 0.976 ± 0.031 for the first, 0.996 ± 0.015 for the second.

ATTTTTTGCC and CCCTTGACGG are within error of each other in switch fluorescence ratio: 0.962 ± 0.052 for the first, 1.07 ± 0.14 for the second.

AGGGTATGGG and AGGATAGTGT are within error of each other in switch fluorescence ratio: 1.03 ± 0.058 for the first, 0.985 ± 0.036 for the second.

First: CGGTATGGGA
Second: GCCATATACA
The switch fluorescence ratio of the first is lower: 0.979 ± 0.044 for the first, 1.035 ± 0.01 for the second.

First: AGTGGGGGAT
Second: TTACTCATTT
The switch fluorescence ratio of the first is lower: 0.988 ± 0.028 for the first, 1.017 ± 0.0018 for the second.

GGGGTGAAGC and GTTATGCGCG are within error of each other in switch fluorescence ratio: 1.02 ± 0.036 for the first, 1.03 ± 0.013 for the second.

TTTTTGCTGT and CGGGGGGTTA are within error of each other in switch fluorescence ratio: 2.91 ± 3.3 for the first, 1.01 ± 0.033 for the second.

First: GTGTCAAAGA
Second: AATTTCGCAA
The switch fluorescence ratio of the first is lower: 0.984 ± 0.02 for the first, 3.4 ± 1.3 for the second.

GATGCCACAG and ATAAATGGGT are within error of each other in switch fluorescence ratio: 1.02 ± 0.07 for the first, 0.9945 ± 0.0025 for the second.

Going from TTAATAGGTG to TTAAAAACTG, the switch fluorescence ratio falls from 1.14 ± 0.015 to 0.992 ± 0.033.

CGGAGGGGGG and GAGCTGAGCG are within error of each other in switch fluorescence ratio: 1.03 ± 0.062 for the first, 0.996 ± 0.031 for the second.

TGAAGGGGGT and GAGACAAGGA are within error of each other in switch fluorescence ratio: 0.999 ± 0.032 for the first, 0.97095 ± 8.1e-05 for the second.

ATTCTGGGTT and TCATTCTTTA are within error of each other in switch fluorescence ratio: 0.987 ± 0.032 for the first, 1.01 ± 0.019 for the second.

CGTTAAGTGG and ATAGTCCATA are within error of each other in switch fluorescence ratio: 0.973 ± 0.04 for the first, 0.991 ± 0.015 for the second.

AAGGCGAGGA and TTCTACGGTC are within error of each other in switch fluorescence ratio: 1.043 ± 0.0043 for the first, 1.01 ± 0.03 for the second.

GTAGTTACGG and ATGGGGGGGA are within error of each other in switch fluorescence ratio: 1.05 ± 0.019 for the first, 1.02 ± 0.027 for the second.

GAATTAGTTA and CAGTGGACGG are within error of each other in switch fluorescence ratio: 1.01 ± 0.02 for the first, 0.971 ± 0.042 for the second.

GCGAGTGTGT and GTATAATTTG are within error of each other in switch fluorescence ratio: 0.984 ± 0.029 for the first, 0.9933 ± 0.0019 for the second.

GACAGGGATC and TAATTAGAGT are within error of each other in switch fluorescence ratio: 2.1 ± 1.6 for the first, 0.967 ± 0.046 for the second.

CAATGTGAAA and TCATGGGGCG are within error of each other in switch fluorescence ratio: 1.008 ± 0.0093 for the first, 0.993 ± 0.012 for the second.

ATTTTTTTGC and ATTTAAAAGT are within error of each other in switch fluorescence ratio: 1.03 ± 0.029 for the first, 0.991 ± 0.037 for the second.

Going from TACGATACTC to GCATGATGGC, the switch fluorescence ratio falls from 1.62 ± 0.026 to 1.03 ± 0.063.

ACTTATGTGG and TTTACGGCGT are within error of each other in switch fluorescence ratio: 0.974 ± 0.018 for the first, 0.994 ± 0.017 for the second.

Compared with TTGACTATCG, CAGGCAGTAA is higher in switch fluorescence ratio: 1 ± 0.076 for the first, 1.18 ± 0.073 for the second.

Going from CGTATCCGGT to GTGGTAATTG, the switch fluorescence ratio falls from 1.03 ± 0.0019 to 0.972 ± 0.016.

CGTGTATATG and TGCTCCGGAG are within error of each other in switch fluorescence ratio: 1.01 ± 0.029 for the first, 1.018 ± 0.006 for the second.

TTATGTCGAG and TAATGAGGAA are within error of each other in switch fluorescence ratio: 0.978 ± 0.034 for the first, 1.004 ± 0.01 for the second.

TGTGTTCCTT and TTGATATGAC are within error of each other in switch fluorescence ratio: 1 ± 0.018 for the first, 1.014 ± 0.0094 for the second.

TAACAATTGT and CATGTGGTCA are within error of each other in switch fluorescence ratio: 1.12 ± 0.18 for the first, 1.03 ± 0.046 for the second.

TCTGCTCTGG and ACTGATCGCG are within error of each other in switch fluorescence ratio: 0.983 ± 0.03 for the first, 1.02 ± 0.034 for the second.

AAAGATAGGC and AAGGTGGGCC are within error of each other in switch fluorescence ratio: 0.954 ± 0.072 for the first, 0.985 ± 0.019 for the second.

First: TGGGCGAGAG
Second: ACTATTTTTG
The switch fluorescence ratio of the first is higher: 1.02 ± 0.034 for the first, 0.9745 ± 0.0067 for the second.

Going from TCGGGTTAGG to CGCATCCCGC, the switch fluorescence ratio rises from 0.998 ± 0.032 to 1.37 ± 0.024.

GTTTTTTTGC and TCATTTATAT are within error of each other in switch fluorescence ratio: 0.9766 ± 0.006 for the first, 0.98 ± 0.047 for the second.

Going from CGGTGACTCG to AAAAAGTCAT, the switch fluorescence ratio falls from 1.03 ± 0.029 to 0.967 ± 0.021.

TGGATTGTTT and TGGCTGACTT are within error of each other in switch fluorescence ratio: 0.994 ± 0.03 for the first, 1.01 ± 0.016 for the second.

GAAGGGCTGT and GGTGTCTTCA are within error of each other in switch fluorescence ratio: 0.993 ± 0.029 for the first, 1.06 ± 0.076 for the second.

ATGGGGAATT and TTGGGTGTCT are within error of each other in switch fluorescence ratio: 0.995 ± 0.035 for the first, 0.988 ± 0.057 for the second.

GTTAAAAAGG and GTGGGGTCGC are within error of each other in switch fluorescence ratio: 0.998 ± 0.022 for the first, 0.978 ± 0.012 for the second.

ATTTTATTTT and ATGGGCGTAT are within error of each other in switch fluorescence ratio: 1.01 ± 0.029 for the first, 1.04 ± 0.017 for the second.

GAGTTATTCG and TGGTAATCAA are within error of each other in switch fluorescence ratio: 1.02 ± 0.023 for the first, 1.01 ± 0.039 for the second.

GGTGGACAAC and GGTACGTGCA are within error of each other in switch fluorescence ratio: 0.997 ± 0.013 for the first, 0.99 ± 0.024 for the second.

Compared with AATACGATGC, TTTAGATAAA is lower in switch fluorescence ratio: 1.2 ± 0.091 for the first, 1.02 ± 0.017 for the second.

ACTGTTTTGC and AATCGGTTAG are within error of each other in switch fluorescence ratio: 0.999 ± 0.019 for the first, 1 ± 0.03 for the second.

GGGTATGCGG and GAGAAGCACG are the same in switch fluorescence ratio: 0.978 ± 0.042 for the first, 0.978 ± 0.055 for the second.

CGGGGCCGTT and GCGATATAGT are within error of each other in switch fluorescence ratio: 1 ± 0.019 for the first, 1.03 ± 0.074 for the second.

TTTCGGATTC and TTTTTTTTAT are within error of each other in switch fluorescence ratio: 1.08 ± 0.059 for the first, 1 ± 0.024 for the second.

AGATAGCAGT and TTACGGTCCC are within error of each other in switch fluorescence ratio: 1.019 ± 0.0016 for the first, 1.19 ± 0.24 for the second.

GGCAGAGATC and TGAAAATCGG are within error of each other in switch fluorescence ratio: 1.06 ± 0.077 for the first, 0.965 ± 0.02 for the second.

CATTTGGGAC and CGAGGATTTC are within error of each other in switch fluorescence ratio: 1.02 ± 0.047 for the first, 0.9885 ± 0.0094 for the second.

CAGTTGTGGT and ATTTTTCTTA are within error of each other in switch fluorescence ratio: 0.998 ± 0.011 for the first, 1.007 ± 0.0045 for the second.

TGGGGGGAAC and ATGGCTTGTC are within error of each other in switch fluorescence ratio: 1.02 ± 0.019 for the first, 1.03 ± 0.038 for the second.

AGGCAGCTGT and CTGTAATAAG are within error of each other in switch fluorescence ratio: 1.01 ± 0.018 for the first, 1.09 ± 0.075 for the second.

CAATGGAAAT and GATTACTTTG are within error of each other in switch fluorescence ratio: 0.984 ± 0.025 for the first, 0.9562 ± 0.0039 for the second.

First: TTTAAACTTT
Second: GGGTAAGCCG
The switch fluorescence ratio of the first is higher: 1.013 ± 0.0075 for the first, 0.918 ± 0.02 for the second.

TGAGATGGTG and TGAAAGCCGG are within error of each other in switch fluorescence ratio: 0.9739 ± 0.0014 for the first, 0.965 ± 0.045 for the second.

First: AACTTTTTAT
Second: CGTGAAGTCG
The switch fluorescence ratio of the first is higher: 1.04 ± 0.042 for the first, 0.954 ± 0.025 for the second.

TTTGATTTTC and CGGTTTGTAT are within error of each other in switch fluorescence ratio: 0.976 ± 0.049 for the first, 0.985 ± 0.023 for the second.

CGGATTTCAG and GGTCGGGTTC are within error of each other in switch fluorescence ratio: 0.951 ± 0.03 for the first, 0.985 ± 0.015 for the second.

TGCCTTGCCA and AGCGGGGGGG are within error of each other in switch fluorescence ratio: 1 ± 0.012 for the first, 1.02 ± 0.036 for the second.

ATTTCGTGGG and GTAGTTCGGG are within error of each other in switch fluorescence ratio: 0.978 ± 0.023 for the first, 0.997 ± 0.036 for the second.

Going from TAGTTATGGT to GTTCTATCAT, the switch fluorescence ratio falls from 1.04 ± 0.019 to 0.961 ± 0.022.

AAGGGCGCAG and GTTCGGGGCC are within error of each other in switch fluorescence ratio: 0.993 ± 0.056 for the first, 1.01 ± 0.046 for the second.

AAAATTTAAT and ATTTTGAGAC are within error of each other in switch fluorescence ratio: 1.01 ± 0.016 for the first, 0.995 ± 0.026 for the second.

CGGTGTTAGC and CCTGGAGGTT are within error of each other in switch fluorescence ratio: 0.976 ± 0.0015 for the first, 0.964 ± 0.022 for the second.

Compared with TTTTTGCTAG, TACGATGAGG is higher in switch fluorescence ratio: 0.986 ± 0.013 for the first, 1.05 ± 0.018 for the second.

ACGGTTCGGA was tested, and the switch fluorescence ratio was 1.02 ± 0.019.

From the supplement of paper PMC10126150
